According to patent US11499162B2, “Plants having increased tolerance to herbicides” (BASF SE, priority 2016, dated 2022):
Substitutions are numbered along the chain they refer to. In names and notes the source's numbering stands.

B1: Y85LL88AL92AY93LQ96TD128G: mutated TriA variant of SEQ ID NO: 2 (protein)
chain: MQTLSIQHGTLVTMDQYRRVLGDSWVHVQDGRIVALGVHAESVPPPADRVIDARGKVVLPGFINAHTHVNQILLRGGPSHGRQLLDWAFNVALPGTKAMRPEDVAVAVRLYCAEAVRSGITTINDNAGSAIYPGNIEAAMAVYGEVGVRVVYARMFFDRMDGRIQGYVDALKARSPQVELCSIMEETAVAKDRITALSDQYHGTAGGRISVWPAPAITPAVTVEGMRWAQAFARDRAVMWTLHMAESDHDERLHWMSPAEYMECYGLLDERLQVAHCVYFDRKDVRLLHRHNVKVASQVVSNAYLGSGVAPVPEMVERGMAVGIGTDDGNCNDSVNMIGDMKFMAHIHRAVHRDADVLTPEKILEMATIDGARSLGMDHEIGSIETGKRADLILLDLRHPQTTPHHHLAATIVFQAYGNEVDTVLIDGNVVMENRRLSFLPPERELAFLEEAQSRATAILQRANMVANPAWRSL
modifications: Pseudomonas
B2: M155L: mutated TriA variant of SEQ ID NO: 2 (protein)
chain: B1 chain with L85Y, A88L, A92L, L93Y, T96Q, G128D, M155L
modifications: Pseudomonas
B3: W87HL92AY93LF157L: mutated TriA variant of SEQ ID NO: 2 (protein)
chain: B1 chain with L85Y, W87H, A88L, T96Q, G128D, F157L
modifications: Pseudomonas
B4: L92AY93LF157L: mutated TriA variant of SEQ ID NO: 2 (protein)
chain: B1 chain with L85Y, A88L, T96Q, G128D, F157L
modifications: Pseudomonas
B5: W87AL92AY93LF157L: mutated TriA variant of SEQ ID NO: 2 (protein)
chain: B1 chain with L85Y, W87A, A88L, T96Q, G128D, F157L
modifications: Pseudomonas
B6: Q71NL92AY93LQ96TD128G: mutated TriA variant of SEQ ID NO: 2 (protein)
chain: B1 chain with Q71N, L85Y, A88L
modifications: Pseudomonas
B7: N70TQ71V: mutated TriA variant of SEQ ID NO: 2 (protein)
chain: B1 chain with N70T, Q71V, L85Y, A88L, A92L, L93Y, T96Q, G128D
modifications: Pseudomonas
B8: N70VD128TM155V: mutated TriA variant of SEQ ID NO: 2 (protein)
chain: B1 chain with N70V, L85Y, A88L, A92L, L93Y, T96Q, G128T, M155V
modifications: Pseudomonas
B9: Y85LL88AL92AY93VQ96TD128G: mutated TriA variant of SEQ ID NO: 2 (protein)
chain: B1 chain with L93V
modifications: Pseudomonas
B10: Y85LL88AF89AL92AY93VQ96TD128GM155VF157L: mutated TriA variant of SEQ ID NO: 2 (protein)
chain: B1 chain with F89A, L93V, M155V, F157L
modifications: Pseudomonas
B11: Y85LL88AF89AL92AY93LQ96TD128GM155VF157L: mutated TriA variant of SEQ ID NO: 2 (protein)
chain: B1 chain with F89A, M155V, F157L
modifications: Pseudomonas
B12: L92AY93LQ96TD128G: mutated TriA variant of SEQ ID NO: 2 (protein)
chain: B1 chain with L85Y, A88L
modifications: Pseudomonas
B13: N70VD128SM155V: mutated TriA variant of SEQ ID NO: 2 (protein)
chain: B1 chain with N70V, L85Y, A88L, A92L, L93Y, T96Q, G128S, M155V
modifications: Pseudomonas
B14: L88AL92AY93LF157L: mutated TriA variant of SEQ ID NO: 2 (protein)
chain: B1 chain with L85Y, T96Q, G128D, F157L
modifications: Pseudomonas
B15: L92AY93LM155TF157L: mutated TriA variant of SEQ ID NO: 2 (protein)
chain: B1 chain with L85Y, A88L, T96Q, G128D, M155T, F157L
modifications: Pseudomonas
B16: D128G: mutated TriA variant of SEQ ID NO: 2 (protein)
chain: B1 chain with L85Y, A88L, A92L, L93Y, T96Q
modifications: Pseudomonas
B17: D128V: mutated TriA variant of SEQ ID NO: 2 (protein)
chain: B1 chain with L85Y, A88L, A92L, L93Y, T96Q, G128V
modifications: Pseudomonas
B18: D128P: mutated TriA variant of SEQ ID NO: 2 (protein)
chain: B1 chain with L85Y, A88L, A92L, L93Y, T96Q, G128P
modifications: Pseudomonas
B19: Y85LL88AF89AL92AY93LQ96TD128G: mutated TriA variant of SEQ ID NO: 2 (protein)
chain: B1 chain with F89A
modifications: Pseudomonas
B20: L92AY93I: mutated TriA variant of SEQ ID NO: 2 (protein)
chain: B1 chain with L85Y, A88L, L93I, T96Q, G128D
modifications: Pseudomonas
B21: Y85LL88AF89AL92AY93VQ96TD128G: mutated TriA variant of SEQ ID NO: 2 (protein)
chain: B1 chain with F89A, L93V
modifications: Pseudomonas
B22: N70VM155V: mutated TriA variant of SEQ ID NO: 2 (protein)
chain: B1 chain with N70V, L85Y, A88L, A92L, L93Y, T96Q, G128D, M155V
modifications: Pseudomonas
B23: F157T: mutated TriA variant of SEQ ID NO: 2 (protein)
chain: B1 chain with L85Y, A88L, A92L, L93Y, T96Q, G128D, F157T
modifications: Pseudomonas
B24: L92AY93VM155TF157L: mutated TriA variant of SEQ ID NO: 2 (protein)
chain: B1 chain with L85Y, A88L, L93V, T96Q, G128D, M155T, F157L
modifications: Pseudomonas
B25: L92AY93V: mutated TriA variant of SEQ ID NO: 2 (protein)
chain: B1 chain with L85Y, A88L, L93V, T96Q, G128D
modifications: Pseudomonas
B26: W87FL92AY93LF157L: mutated TriA variant of SEQ ID NO: 2 (protein)
chain: B1 chain with L85Y, W87F, A88L, T96Q, G128D, F157L
modifications: Pseudomonas

Assay type: biochemical
Settings: pH 7.2
How it was run: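 % degradation measured against empty-vector control by UPLC-HR-MS, with product identity confirmed by exact mass and MS-MS. Conditions: 25 mM sodium phosphate pH 7.2, 30 °C, substrates at 1–10 nM. Enzyme source: TriA-expressing E. coli resting cells incubated with azines, melamine or atrazine.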

Molecule | Degradation in % of 6-cyclopentyl-N4-(2,3,4,5,6-pentafluorophenyl)-1,3,5-triazine-2,4-diamine | Degradation in % of Melamine
B1 | 12% | 0%
B2 | 0% | 4%
B3 | 18% | 0%
B4 | 97% | 43%
B5 | 12% | 3%
B6 | 85% | 0%
B7 | 3% | 0%
B8 | 1% | 4%
B9 | 14% | 0%
B10 | 13% | 6%
B11 | 13% | 1%
B12 | 94% | 0%
B13 | 0% | 0%
B14 | 99% | 1%
B15 | 99% | 41%
B16 | 0% | 0%
B17 | 2% | 0%
B18 | 0% | 0%
B19 | 9% | 0%
B20 | 75% | 0%
B21 | 13% | 0%
B22 | 0% | 0%
B23 | 0% | 60%
B24 | 99% | 0%
B25 | 58% | 0%
B26 | 99% | 1%
